These results are taken from PMC3792889.

For the test, the target named is Growth factor receptor protein binding protein 2 (Grb2), endogenous (mouse (endogenous in STHdhQ7/7, STHdhQ111/111 and Neuro2A cells)) (UniProt Q60631). Nature of the test: co-IP; extracts of Neuro2A cells transfected with 23Q or 145Q Httex1 GFP; precipitated with anti-Grb2 antibody and Protein A/G beads; blot with anti-GFP; densitometry, n=3.
Sequence of UniProt Q60631 (Q60631 whole entry): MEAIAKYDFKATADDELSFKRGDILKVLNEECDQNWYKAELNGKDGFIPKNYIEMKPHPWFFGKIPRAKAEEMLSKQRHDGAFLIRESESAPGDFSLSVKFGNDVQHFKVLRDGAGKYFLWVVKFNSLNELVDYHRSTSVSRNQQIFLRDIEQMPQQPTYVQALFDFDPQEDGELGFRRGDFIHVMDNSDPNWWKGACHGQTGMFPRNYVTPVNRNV

145Q Htt exon1 GFP (domain or fragment) yielded a fold precipitation against 23Q Httex1 GFP of 2 fold.
